US20230242601A1 (published 2023)

Biological target: FABP3 fused with a His-tag at the N-terminus
Test: QCM

Sequence of FABP3 fused with a His-tag at the N-terminus (chain, as listed by the source): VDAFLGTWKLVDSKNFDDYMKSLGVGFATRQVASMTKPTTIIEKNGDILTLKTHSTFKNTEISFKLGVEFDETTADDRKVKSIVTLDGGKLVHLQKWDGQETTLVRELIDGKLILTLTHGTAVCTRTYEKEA

Row | Kd [nM] | Binder
1 | 6.3 | EEGYQDWEPEA [SynP130-140 Y136W]
2 | 6.1 | EEGYQDYEPEA [SynP130-140 peptide]
3 | 7.7 | EEGYQDFEPEA [SynP130-140 Y136F]

The remaining lines, values behind:

Row | Binder | Kd [nM]
4 | EEGFQDWEPEA [SynP130-140 Y133F/Y136W] | 6.1
5 | EEGFQDFEPEA [SynP130-140 Y133F/Y136F] | 2.1
6 | EEGWQDWEPEA [SynP130-140 Y133W/Y136W] | 6.2
